# Test results reported in patent publication US20260108608A1 (GC CELL, published 2026).
# T1: CD5 on CD5-positive tumor cell lines (CCRF-CEM, RPMI-8402_Luc / RPMI-8402-Luciferase, RPMI-8402) (human, UniProt P06127 25-495)
# T1 sequence (looked up): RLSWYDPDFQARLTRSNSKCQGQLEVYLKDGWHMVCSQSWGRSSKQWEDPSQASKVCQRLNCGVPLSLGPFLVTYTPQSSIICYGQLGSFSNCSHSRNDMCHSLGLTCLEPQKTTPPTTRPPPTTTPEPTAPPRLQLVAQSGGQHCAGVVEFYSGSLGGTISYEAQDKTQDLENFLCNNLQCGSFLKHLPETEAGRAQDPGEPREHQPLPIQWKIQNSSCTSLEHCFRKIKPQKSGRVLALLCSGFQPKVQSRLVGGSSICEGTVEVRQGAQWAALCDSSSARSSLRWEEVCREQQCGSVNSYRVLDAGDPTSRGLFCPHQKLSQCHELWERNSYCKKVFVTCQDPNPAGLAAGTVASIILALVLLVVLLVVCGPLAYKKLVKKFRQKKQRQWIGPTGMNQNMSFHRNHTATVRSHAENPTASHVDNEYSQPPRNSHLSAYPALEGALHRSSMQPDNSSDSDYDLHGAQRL
# B1: CD5 CAR (fourth generation), chimeric antigen receptor with anti-CD5 scFv, expressed on cord blood-derived NK cells (receptor)
# chain: EIQLVQSGGGLVKPGGSVRISCAASGYTFTNYGMNWVRQAPGKGLEWMGWINTHTGEPTYADSFKGRFTFSLDDSKNTAYLQINSLRAEDTAVYFCTRRGYDWYFDVWGQGTTVTVSSGGGGSGGGGSGGGGSDIQMTQSPSSLSASVGDRVTITCRASQDINSYLSWFQQKPGKAPKTLIYRANRLESGVPSRFSGSGSGTDYTLTISSLQYEDFGIYYCQQYDESPWTFGGGTKLEIKAKPTTTPAPRPPTPAPTIASQPLSLRPEACRPAAGGAVHTRGLDFACDFWVLVVVGGVLACYSLLVTVAFIIFWVRSKRSRLLHSDYMNMTPRRPGPTRKHYQPYAPPRDFAAYRSERVQPLEENVGNAARPRFERNKRVKFSRSADAPAYQQGQNQLYNELNLGRREEYDVLDKRRGRDPEMGGKPRRKNPQEGLYNELQKDKMAEAYSEIGMKGERRRGKGHDGLYQGLSTATKDTYDALHMQALPPR
# Target: T1, CD5 on CD5-positive tumor cell lines …
# Experiment: cell-based or functional assay
binder,measurement,value
B1,"expression of CD107a and cytokines (IFN-γ and TNF-α) in NK cells co-cultured with CCRF-CEM and RPMI-8402_Luc, CD5 CAR-NK against CBNK",≥ 2 fold
